According to patent US20110182904A1 (published 2011):
Changes are numbered by the printed parent chain. Where no end group is shown, it is not given here.

T1: human bone morphogenic protein 4 (BMP4) (human, UniProt P12644 293-408)
T1 sequence: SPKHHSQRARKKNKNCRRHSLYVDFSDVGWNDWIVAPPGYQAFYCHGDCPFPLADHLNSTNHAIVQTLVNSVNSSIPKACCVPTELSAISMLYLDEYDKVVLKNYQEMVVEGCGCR

T2: BMP2 epitope peptide QAKHKQRKRLKSSCKRH (SEQ ID NO:93) (human, also: biotin conjugated, site not given here)
T2 construct: Biotinylated peptide captured on a streptavidin chip
T2 peptide: QAKHKQRKRLKSSCKRH

T3: BMP2 epitope peptide ISMLYLDENEKVVLK (SEQ ID NO:92) (human, also: biotin conjugated, site not given here)
T3 construct: Biotinylated peptide captured on a streptavidin chip
T3 peptide: ISMLYLDENEKVVLK

B1: 11F2 human monoclonal antibody (antibody, V domains shown)
VH: QVQLQESGPGLVKPSETLSLTCTVSGDSIRSYYWSWIRQPPGKGLEWIGYIYYRGSTHYNPSLKSRVTISVDTSKNQFSLKMSSVTAADTAVYYCARICSSISCWGWFDPWGQGTLVTVSS
VL: not shown
notes: Human IgG from a HuMAb/KM mouse hybridoma
B2: 12E3 human monoclonal antibody (antibody, V domains shown)
VH: QVQLVESGGGVVQPGRSLRLSCAASGFTFSSYGMHWVRQAPGKGLEWVAVIWDDGRKKYYADSVKGRFTISRDNSKNTLYLQMNSLRAEDTAVYYCAREPAGVWGMDVWGQGTTVTVSS
VL: DIQMTQSPSSLSASVGDRVTITCRASQGISSWLAWYQQKPEKAPKSLIYAASSLQSGVPSRFSGSGSGTDFTLTISSLQPEDFATYYCQQYNSYPLTFGGGTKVEIK
notes: as for B1
B3: 16B7 human monoclonal antibody (antibody, V domains shown)
VH: QVQLVESGGGVVQPGRSLRLSCAASGFTFSNYGIHWVRQAPGKGLEWVAVIWYDGSHKYYADSMKGRFTISRDNSKNTLDLQMNSLRAEDTAVYYCARGSSSWYFDLWGRGTLVTVSS
VL: B2 VL
notes: as for B1
B4: 8B3 human monoclonal antibody (antibody, V domains shown)
VH: QVQLVQSGAEVKKPGSSVKVSCKASGGTFSSYAISWVRQAPGQGLEWMGRIIPILGIAQYAQKFQGRVTLTADKSTSTAYMELSSLRSEDTAVYYCARGKDIWGQGTMVTVSS
VL: not shown
notes: as for B1
B5: 7D6 human monoclonal antibody (antibody, V domains shown)
VH: B4 VH with A58V, Q59N, L70I
VL: EIVLTQSPGTLSLSPGERATLSCRASQIVISTYLAWYQQKPGQAPRLLIYGASSRATGIPDRFSGSGSGTDFTLTISRLEPEDFAVYYCQQYGSSPCTFGQGTKLEIK
notes: as for B1
B6: 6H4 human monoclonal antibody (antibody, V domains shown)
VH: QVHLQQWGAGLLKPSETLSLTCAVYGGSFSGYYWSWIRQPPGKGLEWIGEINHSGSTNYNPSLKSRVTISVDTSKNQFSLKLSSVTAADTAVYYCAREYYYGSESEYFQHWGQGTLVTVSS
VL: EIVLTQSPATLSLSPGERATLSCRASQSVSSYLAWYQQKPGQAPRLLIYDASNRATGIPARFSGSGSGTDFTLTISSLEPEDFAVYYCQQRSNWPHTFGQGTKLEIK
notes: as for B1
B7: 33F7 human monoclonal antibody (antibody, V domains shown)
VH: B4 VH with S35N, I51L, Q59N, L70I
VL: B5 VL with A19V, I28S, I30S, T32N, Y50K
notes: as for B1
B8: 15F3 human monoclonal antibody (antibody, V domains shown)
VH: B4 VH with S77N
VL: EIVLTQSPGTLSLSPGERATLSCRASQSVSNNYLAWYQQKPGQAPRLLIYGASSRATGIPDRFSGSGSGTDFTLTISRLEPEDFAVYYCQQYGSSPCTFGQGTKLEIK
notes: as for B1
B9: 10F6 human monoclonal antibody (antibody, V domains shown)
VH: B3 VH with S30R, N31S, M64V, A97V, S102N, L107Y, R110Q
VL: B2 VL
notes: as for B1
B10: 1F6 human monoclonal antibody (antibody, V domains shown)
VH: B1 VH with R30S, R54S, H58R, S62P, M82L, I102T
VL: not shown
notes: as for B1

What follows are binders tested against T4, human bone morphogenic protein 2 (BMP2) (human, UniProt P12643 283-396, Disulfide-linked homodimer of this chain (non-reduced band of about 36 kDa, monomers of 17-18 kDa); one copy is given.) (assay: cell-based or functional assay).
T4 sequence (P12643 283-396 limits assumed): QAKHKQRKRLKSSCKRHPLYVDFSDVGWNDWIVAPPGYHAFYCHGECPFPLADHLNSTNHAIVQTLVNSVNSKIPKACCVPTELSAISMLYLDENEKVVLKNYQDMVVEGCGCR

In the case of B1, the “IC50 (read off the curve)” value is reported as ~3 µg/mL.

These binders were tested against T1, human bone morphogenic protein 4 (BMP4) (assay: cell-based or functional assay).

With B1 the “IC50 (read off the curve)” value was ~3 µg/mL.

Target: T2, BMP2 epitope peptide QAKHKQRKRLKSSCKRH …
Test: SPR (Biacore); biotinylated peptide on streptavidin chip, antibody at 40 ug/ml

B2: binds.
B3: binds.
B1: binds.

Target: T3, BMP2 epitope peptide ISMLYLDENEKVVLK …
Test: as above

B4: binds.
B5: binds.

These binders were tested against T1, human bone morphogenic protein 4 (BMP4) (assay: SPR (Biacore); mAb captured via anti-human Fc, BMP flowed at 10 nM).
Description: (§1) The antigen-antibody association kinetics was followed for 2 minutes and the dissociation kinetics was followed for 8 minutes. The association and dissociation curves were fit to a 1:1 Langmuir binding model using BIAevaluation software (Biacore, AB).

Compared with B6, B4 is 1.7-fold lower in Kd: 0.3 nM for the first, 0.18 nM for the second. The second binds more tightly here.

B5 and B7 are within 1.5-fold of each other in Kd: 0.42 nM for the first, 0.38 nM for the second.

First: B8
Second: B2
The Kd of the first is 1.6-fold lower: 0.18 nM for the first, 0.28 nM for the second.

First: B3
Second: B9
The Kd of the first is 38-fold lower: 0.02 nM for the first, 0.75 nM for the second.

Going from B10 to B1, the Kd rises from 0.0003 nM to 0.0007 nM (2.3-fold).

Compared with B6, B4 is 1.7-fold higher in koff: 0.000497 s⁻¹ for the first, 0.000827 s⁻¹ for the second.

B5 and B7 are within 1.5-fold of each other in koff: 0.0012 s⁻¹ for the first, 0.0014 s⁻¹ for the second.

B8 and B2 are within 1.5-fold of each other in koff: 0.00056 s⁻¹ for the first, 0.000482 s⁻¹ for the second.

Going from B3 to B9, the koff rises from 6.12e-05 s⁻¹ to 0.00197 s⁻¹ (32-fold).

Going from B10 to B1, the koff falls from 1.27e-06 s⁻¹ to 3.04e-08 s⁻¹ (42-fold).

Compared with B6, B4 is 2.3-fold higher in kon: 2e+06 M⁻¹ s⁻¹ for the first, 4.69e+06 M⁻¹ s⁻¹ for the second.

B5 and B7 are within 1.5-fold of each other in kon: 2.84e+06 M⁻¹ s⁻¹ for the first, 3.65e+06 M⁻¹ s⁻¹ for the second.

Compared with B8, B2 is 1.8-fold lower in kon: 3.14e+06 M⁻¹ s⁻¹ for the first, 1.75e+06 M⁻¹ s⁻¹ for the second.

B3 and B9 are within 1.5-fold of each other in kon: 2.86e+06 M⁻¹ s⁻¹ for the first, 2.61e+06 M⁻¹ s⁻¹ for the second.

Compared with B10, B1 is 110-fold lower in kon: 4.97e+06 M⁻¹ s⁻¹ for the first, 45300 M⁻¹ s⁻¹ for the second.

These binders were tested against T4, human bone morphogenic protein 2 (BMP2) in the same assay as above.
Description: as §1

Going from B6 to B4, the Kd rises from 0.1 nM to 0.19 nM (1.9-fold). The first binds more tightly here.

First: B5
Second: B7
The Kd of the first is 2.3-fold higher: 0.28 nM for the first, 0.12 nM for the second.

Going from B8 to B2, the Kd falls from 0.03 nM to 0.02 nM (1.5-fold). The second binds more tightly here.

Compared with B3, B9 is 2.4-fold higher in Kd: 0.08 nM for the first, 0.19 nM for the second.

Compared with B10, B1 is 2-fold lower in Kd: 0.02 nM for the first, 0.01 nM for the second.

Going from B6 to B4, the koff rises from 0.000198 s⁻¹ to 0.000582 s⁻¹ (2.9-fold).

Going from B5 to B7, the koff falls from 0.00114 s⁻¹ to 0.000654 s⁻¹ (1.7-fold).

First: B8
Second: B2
The koff of the first is 3.3-fold higher: 0.00027 s⁻¹ for the first, 8.26e-05 s⁻¹ for the second.

B3 and B9 are within 1.5-fold of each other in koff: 0.000282 s⁻¹ for the first, 0.000385 s⁻¹ for the second.

Going from B10 to B1, the koff falls from 8.49e-05 s⁻¹ to 3.09e-05 s⁻¹ (2.7-fold).

Going from B6 to B4, the kon rises from 1.42e+06 M⁻¹ s⁻¹ to 3.02e+06 M⁻¹ s⁻¹ (2.1-fold).

B5 and B7 are within 1.5-fold of each other in kon: 4e+06 M⁻¹ s⁻¹ for the first, 5.71e+06 M⁻¹ s⁻¹ for the second.

Going from B8 to B2, the kon falls from 7.96e+06 M⁻¹ s⁻¹ to 3.39e+06 M⁻¹ s⁻¹ (2.3-fold).

Compared with B3, B9 is 1.8-fold lower in kon: 3.7e+06 M⁻¹ s⁻¹ for the first, 2.04e+06 M⁻¹ s⁻¹ for the second.

Compared with B10, B1 is 1.6-fold lower in kon: 4.65e+06 M⁻¹ s⁻¹ for the first, 2.83e+06 M⁻¹ s⁻¹ for the second.

The binders below were run against T1, human bone morphogenic protein 4 (BMP4) (assay: Biacore competition: mAb (two-fold series from 400 nM) pre-incubated with BMP4 (3-10 nM), mixture injected over immobilised type II BMP receptor; response = BMP4 binding to the receptor).
Description: Both type-I and type-II BMP receptors were covalently linked to a CM5 chip (carboxy methyl dextran coated chip) via primary amines, using the standard amine coupling chemistry and kit provided by Biacore. Mixtures of antibody-antigen complex were flowed across the immobilized receptors. […] Antibody-antigen mixtures were injected at a flow rate of 5 μl/min for 3 minutes.

Compared with B7, B2 is 5-fold lower in “IC50 (read off the curve)” value: ~100 nM for the first, ~20 nM for the second.
